Assays:
[1] = test system: B2M13-14.479 engineered meganuclease (Artificial); assay: cell_activity; conditions: MC3 LNP repeat dose day 0 and day 3, ApoE, measured day 7; 22.62% in the comparison without repeat dosing
[2] = molecular target: CD19 on Raji cells (B cell lymphoma line, Burkitt's Lymphoma) (UniProt P15391); assay: cell-based or functional assay
Sequence of UniProt P15391 (P15391 20-556 limits assumed): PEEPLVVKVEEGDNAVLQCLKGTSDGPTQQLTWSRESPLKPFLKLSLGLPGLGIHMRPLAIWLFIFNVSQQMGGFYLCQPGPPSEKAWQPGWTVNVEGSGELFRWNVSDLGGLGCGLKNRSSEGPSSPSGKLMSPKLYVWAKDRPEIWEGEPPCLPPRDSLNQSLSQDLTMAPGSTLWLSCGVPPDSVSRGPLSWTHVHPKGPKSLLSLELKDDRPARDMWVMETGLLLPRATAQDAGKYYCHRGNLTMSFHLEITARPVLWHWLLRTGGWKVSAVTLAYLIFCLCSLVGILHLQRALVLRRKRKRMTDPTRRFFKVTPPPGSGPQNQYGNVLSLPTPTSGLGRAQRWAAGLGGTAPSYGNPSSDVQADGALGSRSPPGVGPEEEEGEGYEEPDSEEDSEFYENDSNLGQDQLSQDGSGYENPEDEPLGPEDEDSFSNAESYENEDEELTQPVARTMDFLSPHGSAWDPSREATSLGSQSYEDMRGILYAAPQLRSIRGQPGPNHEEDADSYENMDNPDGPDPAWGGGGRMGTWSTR

B2M 13-14 recognition sequence (B2M gene)
activity (% B2M knockout) [1]: 26.4

anti-CD19 CAR (FMC63) expressed on human donor T cells after AAV6-7206 transduction
killing of CD19+ Raji cells in 16 h co-culture (CAR T cells made with AAV added 0-24 hours after LNP) [2]: 99%
killing of CD19+ Raji cells in 16 h co-culture (CAR T cells made with AAV added 24-48 hours after LNP) [2]: 94%
